Source: patent US9611303B2, “Modified biotin-binding protein” (Japan Tobacco Inc., priority 2009, dated 2017)
Residue numbers refer to the chain shown, from its start. In names and notes the source's numbering stands.

B1: TM2 T78A-D116A: TM2 with 78th threonine and 116th aspartic acid replaced with alanine; SEQ ID NO: 22 (protein)
chain: MSDVQSSLTGTWYNELNSKMELTANKDGTLTGKYLSKVGDVYVPYPLSGRYNLQPPAGQGVALGWAVSWENSKIHSAATWSGQFFSESSPVILTQWLLSSSTARGDVWESTLVGNASFTKTAPTEQQIAHAQLHCRAPRLK
modifications: Synthetic TM2 T78A-D116A
B2: TM2 D116A: TM2 in which the 116th aspartic acid was replaced with alanine; SEQ ID NO: 12 (protein)
chain: B1 chain with A78T
modifications: Synthetic TM2 D116A
B3: TM2P46T-D116A: TM2 with 46th proline replaced with threonine and 116th aspartic acid with alanine; SEQ ID NO: 16 (protein)
chain: B1 chain with P46T, A78T
modifications: Synthetic TM2 P46T-D116A
B4: TM2P46T-T78A: TM2 with 46th proline replaced with threonine and 78th threonine with alanine; SEQ ID NO: 14 (protein)
chain: B1 chain with P46T, A116D
modifications: Synthetic TM2 P46T-T78A
B5: TM2 W80K: TM2 in which the 80th tryptophan was replaced with lysine; amino acid sequence SEQ ID NO: 4 (protein)
chain: B1 chain with A78T, W80K, A116D
modifications: Synthetic TM2 W80K
B6: TM2 L97T-V113R: TM2 with 97th leucine replaced with threonine and 113th valine with arginine (protein)
chain: B1 chain with A78T, L97T, V113R, A116D
B7: TM2 S36A: TM2 in which the 36th serine was replaced with alanine; SEQ ID NO: 6 (protein)
chain: B1 chain with S36A, A78T, A116D
modifications: Synthetic TM2 S36A
B8: TM2P46T-T78A-D116A: TM2 with P46T, T78A and D116A replacements; SEQ ID NO: 18 (protein)
chain: B1 chain with P46T
modifications: Synthetic TM2 P46T-T78A-D116A

Assays:
[1] = Purification of LATM2 with biotin-agarose; format: binding
Procedure: Purification with biotin-agarose (manufactured by Sigma-Aldrich Corp.) was performed by the following procedure. After induced expression of 25 mL of a culture solution of E. coli for each LATM2, the E. coli cells were suspended in 1.5 mL of a 100 mM potassium phosphate buffer (pH 7.0), and then sonicated. To the supernatant of the disrupted cells. 400 μL of biotin-agarose was added, which was followed by upside-down mixing for 1 hr. […]
In TM2 S36A-T78A-D116A, the E. coli cells were suspended in 1.5 mL of 50 mM CAPS (pH 12) containing 50 mM NaCl, and then sonicated. To the disrupted cells, 400 μL of biotin-agarose was added, which was followed by upside-down mixing for 1 hr. The column was sufficiently washed with 50 mM CAPS (pH 12) containing 500 mM NaCl, and elution was then performed with 1 mL of PBS (pH 7.4) containing 10 mM biotin.
In TM2 S36A-D116A, the E. coli cells were suspended in 1.5 mL of a 100 mM potassium phosphate buffer (pH 4.0), and then sonicated. To the pupernatant of the disrupted cells, 400 μL of biotin-agarose was added. Washing was performed with a 100 mM potassium phosphate buffer (pH 4) containing 500 mM NaCl, and elution was performed with 1 mL of PBS (pH 7) containing 10 mM biotin. Biotin binding to LATM2 that has been eluted with an excess amount of biotin was removed by dialysis with a 20 mM potassium phosphate buffer overnight.
(§1) The recovery rate in Table 2 was calculated by dividing the amount of LATM2 protein after purification by the amount of LATM2 protein before purification and was expressed by percent by multiplying the quotient by 100. The degree of purification was the ratio of the amount of LATM2 protein to the total amount of proteins in the purified fraction and was expressed by percent by multiplying the ratio by 100. The recovery rates and the degrees of purification in biotin-agarose were the results after binding at pH 7 and elution with an excess amount of biotin.

[2] = Purification of LATM2 with 2-iminobiotin-agarose; format: binding; details: for Note (Iminobiotin-agarose): FT = column flow-through fraction; for Recovery rate (%): Iminobiotin-agarose, binding at pH 12, elution with 50 mM NH4OAC (pH 4)
Procedure: LATM2 was purified through a column charged with 2-iminobiotin-agarose (manufactured by Sigma-Aldrich Corp.) in accordance with the method by Hofmann, et al., (1980). IPTG was added to 25 mL of a culture solution of E. coli transformed with each LATM2 in a final concentration of 1 mM to induce expression. The E. coli cells were collected by centrifugation, suspended in 1.5 mL of 50 mM CAPS (pH 12) containing 50 mM NaCl, and then sonicated. To the supernatant of the disrupted cells, 500 μL of 2-iminobiotin-agarose was added, which was then packed in a column. The column was sufficiently washed with 50 mM CAPS (pH 12) containing 500 mM NaCl, and elution was then performed with 50 mM NH4OAC (pH 4).
as §1

Proteinase K = assay: Protease resistance of LATM2 (SDS-PAGE); details: 5 μM Proteinase K, 30° C., 15 min, presence or absence of biotin
Procedure: Throughout the specification, “having protease resistance” refers to that a protein is not enzymatically decomposed or not substantially decomposed by protease treatment. The protease treatment is performed by, for example, proteinase K treatment at 30° C. for 15 min. The term “not enzymatically decomposed” refers to that bands of a tetramer, dimer, and/or monomer of the protein can be clearly detected by SDS-PAGE after enzyme treatment, as in wild-type TM2. That is, a protein not having protease resistance is decomposed into small molecules by protease treatment, and bands of the tetramer, dimer, and monomer are not detected by SDS-PAGE after the protease treatment. […] Accordingly, bands of the tetramer and/or the dimer or monomer generated by dissociation of the tetramer are detected by SDS-PAGE. […] of each of the LATM2s (TM2 S36A, TM2 […], TM2 […], TM2 […], TM2 […], TM2 S36A-[…], TM2 […], and […]) purified by biotin-agarose was subjected to a reaction in 50 mM Tris-HCl (pH 8.0) containing 5 μM Proteinase K and 5 mM CaCl2 at 30° C. for 15 min. […] Then, an SDS buffer was added to each reaction solution, followed by heat treatment at 95° C. for 10 min to terminate the reaction. The resulting sample was subjected to SDS-PAGE, followed by CBB staining.

[3] = Subunit association by FPLC on Sephacryl S-100HR; format: physicochemical; details: for Structure (identified by FPLC): Sephacryl S-100HR, 50 mM potassium phosphate, 500 mM NaCl; for Sephacryl (mL), elution peak position: tetramer 44 to 47 mL, dimer 51 to 54 mL, monomer 63 to 66 mL
Procedure: In order to analyze the subunit association conditions of LATM2, the molecular weight of each LATM2s was measured by FPLC. Sephacryl S-100HR (manufactured by GE Healthcare) was used as a column, a Gel Filtration Calibration Kit LMW (manufactured by GE Healthcare) was used as molecular weight markers, and 50 mM potassium phosphate containing 500 mM NaCl was used as a buffer.
The positions of the peaks of eluted tetramer were defined to be 44 to 47 mL after injection of WT-TM2 as a control. The peak of an eluted monomer appeared at around 63 to 66 mL and the peak of an eluted dimer appeared at around 51 to 54 mL, from result of loading the molecular weight markers.

[4] = Biotin-agarose, binding at pH 7, recovery with 10 mM biotin

| Molecule | Recover rate (%) [1, 4] [%] | binding to 2-iminobiotin-agarose [2] | Note (Iminobiotin-agarose) [2] | Recovery rate (%) [2] [%] | decomposition by Proteinase K (Proteinase K) | Structure (identified by FPLC) [3] | Sephacryl (mL), elution peak position [3] [mL] | Structure (identified by FPLC) ([3]; listed as D116A) | recovery rate by binding at pH 12, extraction with acetic acid ([1]; Biotin-agarose) | Note (Biotin-agarose) ([1]; binding at pH 7, recovery with 10 mM biotin, FT = flow-through) | recover rate by elution with acetic acid ([1]; Biotin-agarose, elution with acetic acid) | binding to biotin-agarose [1] | elution from biotin-agarose with an excess amount of biotin [1] | Structure (identified by FPLC) ([3]; listed as S36A) |
| --- | --- | --- | --- | --- | --- | --- | --- | --- | --- | --- | --- | --- | --- | --- |
| B1 | 95 | did not bind | To FT | 0 | hardly decomposed | Tetramer | 46.37 | – | – | – | – | – | – | – |
| B2 | 95 | – | – | 95 | hardly decomposed | tetramer | 46.22 | Tetramer | – | – | – | – | – | – |
| B3 | 95 | – | – | 95 | hardly decomposed | Tetramer | 46.23 | – | – | – | – | – | – | – |
| B4 | 5 | – | – | 95 | hardly decomposed | Tetramer | 46.05 | – | recovery rate: 70% | note eluted | – | – | – | – |
| B5 | 50 | – | – | 95 | hardly decomposed | Tetramer | 44.4 | – | – | – | recover rate: 95% | – | – | – |
| B6 | 70 | did not bind | To FT | 0 | – | Tetramer | 45.42 | – | – | – | – | – | – | – |
| B7 | 95 | – | – | 95 | hardly decomposed | tetramer | 46.17 | – | – | – | – | efficiently adsorbs to biotin-agarose | eluted by addition of an excess amount of biotin | Tetramer |
| B8 | 95 | – | – | 95 | hardly decomposed | Tetramer | 48.24 | – | – | – | – | – | – | – |
